T1: UBLCP1 (UniProt Q8WVY7)
T1 sequence: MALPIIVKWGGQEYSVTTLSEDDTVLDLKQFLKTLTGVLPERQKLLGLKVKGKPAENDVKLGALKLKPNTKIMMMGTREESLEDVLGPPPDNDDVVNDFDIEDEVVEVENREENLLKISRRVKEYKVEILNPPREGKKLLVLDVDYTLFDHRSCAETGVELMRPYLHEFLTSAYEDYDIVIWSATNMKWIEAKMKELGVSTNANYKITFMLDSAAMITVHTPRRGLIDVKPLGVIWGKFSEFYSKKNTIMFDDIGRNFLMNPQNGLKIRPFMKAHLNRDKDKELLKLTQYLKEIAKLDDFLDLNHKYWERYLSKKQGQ

T2: NELF-E (Drosophila, UniProt P92204 1-280)
T2 sequence: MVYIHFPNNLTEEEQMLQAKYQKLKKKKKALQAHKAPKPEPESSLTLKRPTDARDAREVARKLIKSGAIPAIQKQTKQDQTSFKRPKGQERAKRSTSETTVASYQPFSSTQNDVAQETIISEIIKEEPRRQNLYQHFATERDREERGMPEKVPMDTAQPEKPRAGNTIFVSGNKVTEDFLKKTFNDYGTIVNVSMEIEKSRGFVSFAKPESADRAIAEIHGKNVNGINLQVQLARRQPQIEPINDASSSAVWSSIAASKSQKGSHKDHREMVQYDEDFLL


How the values were obtained:
[1] = target: GFP (UniProt P42212); experiment: affinity microcolumn + qPCR; details: GFP 0.6 ug/uL resin; serial; Binding buffer (composition, pH and temperature not in material) with 10 ug/mL yeast tRNA; serial: 4.75 nM N70 library + 50 pM each aptamer/BBS, 1 mL, protein …
[2] = target: T1, UBLCP1; experiment: affinity microcolumn + qPCR; details: value is average over all 7 other targets; Binding buffer (composition, pH and temperature not in material) with 10 ug/mL yeast tRNA; serial: 4.75 nM N70 library + 50 pM each aptamer/BBS, 1 mL, protein …
[3] = target: T2, NELF-E; experiment: affinity microcolumn + qPCR; NELF-E 0.6 ug/uL resin; serial; Binding buffer (composition, pH and temperature not in material) with 10 ug/mL yeast tRNA; serial: 4.75 nM N70 library + 50 pM each aptamer/BBS, 1 mL, protein 0.6 ug/uL resin; wash 3 mL at 300 uL/min; details: protein: recombinant; tags: His6

Molecule | binding signal (fold enrichment over N70 library) [1] | binding signal (fold enrichment over N70 library) [2] | binding signal [3]
AGCUUCUGGACUGCGAUGGGAGCACGAAACGUCGUGGCGCAAUUGGGUGGGGAAAGUCCUUAAAAGAGGGCCACCACAGAAGCU [GFPapt (AP3-1)] | 750 | 0.6 | 
GGGAAUGGAUCCACAUCUACGAAUUCAAUCAAGUCCCCAGACUCAGCAACACUGGACAGCGAUAUGCAGAUAACCAAGACCAAUUCACUCCAGUUCACUGCAGACUUGACGAAGCUU [HSFapt] |  | 2 | 
GGGAAUGGAUCCACAUCUACGAAUUCCCAACGACUGCCGAGCGAGAUUACGCUUGAGCGCCCCACUGAGGAUGCCCACGGGCGAUUGGGGCACGGCUUCACUGCAGACUUGACGAAGCUU [NELFapt] |  | 1.6 | 
NELFapt (structured_RNA) RNA: GGGAAUGGAUCCACAUCUACGAAUUCCCAACGACUGCCGAGCGAGAUUACGCUUGAGCGCCCCACUGAGGAUGCCCACGGGCGAUUGGGGCACGGCUUCACUGCAGACUUGACGAAGCUU |  |  | 262 fold enrichment over N70 library

From paper PMC3975076, “High-throughput binding characterization of RNA aptamer selections using a microplate-based multiplex microcolumn device”
